B1: OsGH3-4: GH3 protein, accession AAU90225 (protein, listed as Oryza sativa)
chain: MPEAVAAAVSPAAAAATAMCAEHREKLEHIERVTRNAGQEQRRVLEEILAQNAQAEYLRRLGVPGDAPGADEAFRRLAPLVTYEDILPDVLRIANGDTSPILSGKPVSEFLTSSGTSGGERKLMPTIEEEMERRSGLYSLLMPVMSRQVPGLDKGKAMYLYFVKSEWRTPGGLPARPVLTSFYRSRYFLERPHDPYTVYTSPDEAVLCEDAYQSMYAQLICGLVHRADVLRVGAVFASGFLRAIRFLEKHWPSLCRDIRAGELDGGVTDPAVRGAVGRVLRGADPALADAIEAECARPSWQGIIRRVWPSTKYIDVIVTGAMAQYIPTLEFYGGGLPLACTMYASSECYFGLNLNPMCKPSEVAYTLIPTMCYFEFLPVNSGANDVAAPEPDHRGLVDLVDVKLGHEYELVVTTYSGLYRYRVGDVLRVAGFKNAAPMFAFVRRKNVALSIDSDKTDEAELHAAVTEAVQHLAPFGASLVEYTSYADTATTIPGHYVLFWELRSPAGGTPVPASVFEDCCLAVEEGLNSVYRQCRAADRSIGPLEIRVVADGTFDKLMDYALSRGASINQYKAPRCVRPGPVVELLDGRVQATYFSPKCPKWCAGGNKQWISSGAAAKKTTTTCDSLAV
B2: OsGH3-2: GH3 protein, accession BAF06259 (protein, listed as Oryza sativa)
chain: MAPAAVAAAEAGSKAAAVAGKAVAACERDAEKLEFIEEMTRGFDAVQERVLAAILARNNGAEYLRRHGMEGRTDREAFKARVPVVTYEDLRPEIERIANGDRSNIISSHPITEFLTSSGTSAGERKLMPTIEDELDRRQMLYSLLMPVMNLYVPGLDKGKGLYFLFIKSETKTPGGLPARPVLTSYYKSDHFKHRPFDPYNVYTSPTAAILCTDAFQSMYAQMLCGLVARAEVLRVGAVFASGLLRAIRFLQLHWRELAHDIRTGTLSAKVTEPSIRDAVAEVLAAPDAELAAFVEAECGKDKWEGIITRMWPNTKYLDVIVTGAMAQYIPTLKFYSGGLPMACTMYASSECYFGLNLRPMCDPSEVSYTIMPNMGYFELMPHDPDAPPLPRDAPPPRLVDLADAEVGREYELVITTYAGLCRYRVGDILQVTGFHNAAPQFRFVRRKNVLLSIDSDKTDEAELQAAVERASALLSPYGASIVEYTSQADATTIPGHYVVYWELMVREGGAWPPPAEEEGRGVFERCCLEMEEALNAVYRQGRNGEAIGPLEIRVVRAGTFEEVMDYAISRGASINQYKAPRCVSFGPIIELLNSRVISKHFSPACPKYSPHKK
B3: SbEER99639: GH3 protein, accession EER99639 (protein)
chain: MAVMAEVVSTTGAALRSPASQPPPPPAAAAVKDADAEKLQFIEEMTSNVDAVQERVLGEILARNADTEYLAKYGITGASDRATFRAKVPMATYEDLQPYIRRIADGDRSPILSGHPVSEFLTSSGTSAGERKLMPTIEDELNRRQLLYSLQMPVMNLYVPGMDKGKALHFLFVKSETKTPGGLAARPVLTSYYKSNHFKNRPFDAYNNYTSPTAAILCADAFQSMYAQMVCGLCQRQDVLRVGAVFASGLLRAIRFLQLNWEQLADDIESGSLTPRITDPSVREAVAGILRPDPELASLVRSECSKGDWAGIITRIWPNTKYLDVIVTGAMAQYIPTLKYYSGGLPMACTMYASSECYFGLNLRPMCDPSEVSYTLMPNMCYFEFLPMDAAASGGGDASQLVDLARVEVGREYELVITTYAGLNRYRVGDVLQVTGFHNTAPQFRFVRRKNVLLSIESDKTDEAELQRAVERASALLRPHGAAVVEYTSQAYTKSIPGHYVIYWELLTKGPAAGAGAAVDRETLDRCCLEMEEALNTVYRQSRVADGSIGPLEIRVVRPGTFEELMDYAISRGASINQYKVPRCVTFPPIIELLDSRVVSTHFSPALPHWTPGQRSHSD
modifications: Sorghum bicolor
B4: SbEES01517: GH3 protein, accession EES01517 (protein)
chain: MAPMATAAAAAAVGRVTALGVAACERDVEKLEFIEDKTKNFDAEQVRVLAEILARNNGAEYLRRHGMEGRTDRQAFKARVPVVTYEDLRPEIDRIANGDRSNIISSHPITEFLTSSGTSAGERKLMPTIEDELNRRQMLYSLLMPVMNLYVPGLDKGKGLYFLFIKSETKTPGGLPARPVLTSYYKSDHFKHRPYDPYNVYTSPTAAILCTDSFQSMYSQMLCGLVARTEVLRVGAVFASGLLRAIRFLQLHWKELAHDLRTGTLSARVVEPSIRDAVAEVLTKPDAGLADLVEAECGKDNWEGIITRVWPNTKYLDVIVTGAMAQYIPTLKYYSGGLPMACTMYASSECYFGLNLRPMCDPSEVSYTIMPNMGYFELLPHDPEDKPAVSSSSAASAMDHDRLLVDLADAEVGKEYELVITTYAGLCRYRVGDILHVTGFHNAAPQFRFVRRKNVLLSIDSDKTDEAELQSAVERASRLLAPYDARIVEYTSQADATTIPGHYVVYWELMVRDGGASPEPDVFERCCLEMEEALNAVYRQGRNGDAIGPLEIRVVRGGTFEEVMDYAISRGASINQYKAPRCVSFGPIIELLNSRVVSRHFSPACPTYSPHKK
modifications: Sorghum bicolor
B5: OsGH3-8: GH3 protein, accession Q0D4Z6 (protein, listed as Oryza sativa)
chain: MAVMTDVSTTGTALRTPAAGAVKEGDVEKLRFIDEMTTNVDAVQERVLGEILGRNAGTEYLTKCGLDGATDRAAFRAKVPVVSYDDLQPYIQRIANGDRSPILSTHPVSEFLTSSGTSAGERKLMPTIMDELDRRQLLYSLLMPVMNLYVPGLDKGKGLYFLFVKSETKTPGGLTARPVLTSYYKSDHFKNRPYDPYHNYTSPTAAILCADAFQSMYAQMVCGLCQRNDVLRLGAVFASGLLRAIRFLQLNWEQLADDIESGELTPRVTDPSVREAVAAILLPDPELAKLIRAECSKGDWAGIITRVWPNTKYLDVIVTGAMAQYIPTLEFYSGGLPMACTMYASSECYFGLNLRPMCDPSEVSYTIMPNMGYFEFLPVDETGAASGDATQLVDLARVEVGREYELVITTYAGLNRYRVGDVLRVTGFHNAAPQFRFVRRKNVLLSIESDKTDEAELQRAVERASALLRPHGASVVEYTSQACTKRIPGHYVIYWELLTKGAGATVVDADTLGRCCLEMEEALNTVYRQSRVADGSIGPLEIRVVRPGTFEELMDYAISRGASINQYKVPRCVTFPPIVELLDSRVVSSHFSPALPHWTPARRSE

Assays:
[1] = LC-MS assay of GH3 conjugation of IAA with Asp or Glu; format: biochemical; settings: for kcat (hrs−1) IAA-Asp: conjugation of IAA with Asp by recombinant GH3 protein, IAA-Asp product by LC-MS; for kcat (hrs−1) IAA-Glu: conjugation of IAA with Glu by recombinant GH3 protein, IAA-Glu product by LC-MS
Method in brief: (§1)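 Amino acid conjugates of IAA, 2,4-D or dicamba measured by LC-MS against conjugate standards, with kinetic parameters fitted to Michaelis-Menten initial velocities. Reactions: 5 mM each of auxin, ATP and Asp or Glu with 44 to 164 μg/mL purified His-tagged GH3 (E. coli-expressed), pH 8.0 Tris, 5 mM MgCl2, 1 mM DTT, 30 °C for 3 h.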

[2] = LC-MS assay of GH3 conjugation of 2,4-D with Asp or Glu; format: biochemical; settings: 5 mM 2,4-D substrate; for kcat (hrs−1) 2,4-D-Asp: conjugation of 2,4-D with Asp by recombinant GH3 protein, 2,4-D-Asp product by LC-MS; for kcat (hrs−1) 2,4-D-Glu: conjugation of 2,4-D with Glu by recombinant GH3 protein, 2,4-D-Glu product by LC-MS
Method in brief: as §1

Molecule | kcat (hrs−1) IAA-Asp [1] [h⁻¹] | kcat (hrs−1) IAA-Glu [1] [h⁻¹] | kcat (hrs−1) 2,4-D-Asp [2] [h⁻¹] | kcat (hrs−1) 2,4-D-Glu [2] [h⁻¹]
B1 | 919.336 | 17.854 | 2.002 | 0.254
B2 | 664.242 | 42.295 | 1.548 | 0.401
B3 | 651.991 | 31.110 | 2.476 | 0.457
B4 | 855.770 | 80.034 | 0.953 | 0.426
B5 | 578.598 | 28.361 | 2.917 | 0.368

— patent publication US20150351390A1, “COMPOSITIONS AND METHODS FOR AUXIN-ANALOG CONJUGATION” (PIONEER HI-BRED INTERNATIONAL, INC., priority 2012, published 2015)
